Reference: patent publication US20160355591A1
Values belong to the substance of their own block, whether it stands above or below them.

Tests used:
[1] = molecular target: Fcγ-receptor on effector cells; test: cell-based or functional assay
[2] = molecular target: HLA-DR (human leukocyte antigen-DR) on human lymphoma and leukemia cells and human lymphocytes (human); test: indirect flow cytometry, Namalwa cells, FITC-GAM 2nd Ab; none 2.91; antibody of irrelevant specificity
[3] = molecular target: HLA-DR (human leukocyte antigen-DR) on human lymphoma and leukemia cells and human lymphocytes (human); test: 697 (ALL) cells; no mAb 4.9; isotype control
[4] = molecular target: HLA-DR (human leukocyte antigen-DR) on human lymphoma and leukemia cells and human lymphocytes (human); test: REH (ALL) cells; no mAb 3.9; isotype control
[5] = molecular target: HLA-DR (human leukocyte antigen-DR) on human lymphoma and leukemia cells and human lymphocytes (human); test: K562 (CML) cells; no mAb 3.2; isotype control
[6] = molecular target: HLA-DR (human leukocyte antigen-DR) on human lymphoma and leukemia cells and human lymphocytes (human); test: MN60 (ALL) cells; no mAb 8.1; isotype control
[7] = molecular target: HLA-DR (human leukocyte antigen-DR) on human lymphoma and leukemia cells and human lymphocytes (human); test: WAC (CLL) cells; no mAb 15.8; isotype control
[8] = molecular target: HLA-DR (human leukocyte antigen-DR) on human lymphoma and leukemia cells and human lymphocytes (human); test: MEC-1 (CLL) cells; no mAb 4.7; isotype control
[9] = molecular target: HLA-DR (human leukocyte antigen-DR) on human lymphoma and leukemia cells and human lymphocytes (human); test: GDM-1 (AML) cells; no mAb 16.8; isotype control
[10] = molecular target: HLA-DR (human leukocyte antigen-DR) on human lymphoma and leukemia cells and human lymphocytes (human); test: RS4;11 (ALL) cells; no mAb 6.4; isotype control
[11] = molecular target: HLA-DR (human leukocyte antigen-DR) on human lymphoma and leukemia cells and human lymphocytes (human); test: Jeko-1 (MCL) cells; no mAb 14.3; isotype control
[12] = molecular target: HLA-DR (human leukocyte antigen-DR) on human lymphoma and leukemia cells and human lymphocytes (human); test: Kasumi-3 (AML) cells; no mAb 9.6; isotype control
[13] = molecular target: HLA-DR (human leukocyte antigen-DR) on human lymphoma and leukemia cells and human lymphocytes (human); test: Kasumi-1 (AML) cells; no mAb 18.2; isotype control
[14] = molecular target: HLA-DR (human leukocyte antigen-DR) on human lymphoma and leukemia cells and human lymphocytes (human); test: Granta-519 (MCL) cells; no mAb 15.3; isotype control
[15] = molecular target: HLA-DR (human leukocyte antigen-DR) on human lymphoma and leukemia cells and human lymphocytes (human); test: HC-1 (hairy cell leukemia) cells; no mAb 4.8; isotype control
[16] = molecular target: HLA-DR (L243 antigen) on canine lymphocytes and canine lymphoma cells (dog); test: flow cytometry, dog lymphoma aspirate; none 3.37; control antibody
[17] = molecular target: HLA-DR (L243 antigen) on canine lymphocytes and canine lymphoma cells (dog); test: flow cytometry, dog lymphoma aspirate; none 3.85; control antibody
[18] = molecular target: HLA-DR (L243 antigen) on canine lymphocytes and canine lymphoma cells (dog); test: flow cytometry, canine lymphoma aspirate 150836; none 3.4; control antibody
[19] = molecular target: HLA-DR (L243 antigen) on canine lymphocytes and canine lymphoma cells (dog); test: flow cytometry, canine lymphoma aspirate 150836; none 3.9; control antibody
[20] = molecular target: HLA-DR (human leukocyte antigen-DR) on human lymphoma and leukemia cells and human lymphocytes (human); test: indirect flow cytometry, Namalwa cells, FITC-GAM 2nd Ab; none 2.91; control antibody
[21] = molecular target: HLA-DR (human leukocyte antigen-DR) on human lymphoma and leukemia cells and human lymphocytes (human); test: indirect flow cytometry, Namalwa cells, FITC-GAH 2nd Ab; none 2.52; antibody of irrelevant specificity (anti-EGP-1)

specific lysis of Daudi target cells (ADCC), corrected for the effect on effector cells [1]: 12%
Substance: hL243γ4P (IMMU-114; humanized L243, IgG4/K isotype with Ser241Pro hinge mutation) (antibody)

specific lysis of Daudi target cells (ADCC), corrected for the effect on effector cells [1]: 48%
Substance: hL243 (humanized L243 anti-HLA-DR antibody, IgG1/K isotype)

geometric mean fluorescence [2]: 3.39
Substance: RS7 (murine mAb) (antibody)

mean FL [3]: 5.6
mean FL [4]: 3.9
mean FL [5]: 4.1
mean FL [6]: 10.5
mean FL [7]: 14.4
mean FL [8]: 6
mean FL [9]: 20.1
mean FL [10]: 8.6
mean FL [11]: 17.4
mean FL [12]: 15.7
mean FL [13]: 17
mean FL [14]: 16.9
mean FL [15]: 3.5
mean FL [16]: 3.04
% Positive [17]: 2.81%
mean FL [18]: 3
% Positive [19]: 2.8%
geometric mean fluorescence [20]: 3.64
Substance: Ag8 (P3x63 Ag8, murine myeloma derived mAb, isotype control) (antibody)

geometric mean fluorescence [21]: 2.47
Substance: hRS7 (humanized anti-EGP-1 antibody)
